{"source": "patent US20100120660A1", "about": "“HIGHLY CONCENTRATED INSULIN SOLUTIONS AND COMPOSITIONS” (priority 2007, published 2010)", "origin": "cited, not measured here"}
{"substance": "porcine insulin", "values": [{"measurement": "stability of insulin in highly concentrated solution", "setting": "acidic pH", "value": "not stable due to deamidation and polymerisation"}, {"measurement": "concentration of stable insulin solutions", "setting": "comprising zinc, neutral pH", "value": "up to 6 mM"}]}
